Assay results as given in article PMC6804253, “Predicting and Experimentally Validating Hot-Spot Residues at Protein–Protein Interfaces” (ACS Chemical Biology, 2019).

B1: 1EMV SA29A (protein, UniProt P13479 1-86, looked up, variant S29A)
Colicin-E9 immunity protein: MELKHSISDYTEAEFLQLVTTICNADTSAEEELVKLVTHFEEMTEHPSGSDLIYYPKEGDDDSPSGIVNTVKQWRAANGKSGFKQG
B2: 1EMV TA44A (protein, UniProt P13479 1-86, looked up, variant T44A)
Colicin-E9 immunity protein: MELKHSISDYTEAEFLQLVTTICNADTSSEEELVKLVTHFEEMAEHPSGSDLIYYPKEGDDDSPSGIVNTVKQWRAANGKSGFKQG
B3: 1EMV SA48A (protein, UniProt P13479 1-86, looked up, variant S48A)
Colicin-E9 immunity protein: MELKHSISDYTEAEFLQLVTTICNADTSSEEELVKLVTHFEEMTEHPAGSDLIYYPKEGDDDSPSGIVNTVKQWRAANGKSGFKQG
B4: 1EMV SA50A (protein, UniProt P13479 1-86, looked up, variant S50A)
Colicin-E9 immunity protein: MELKHSISDYTEAEFLQLVTTICNADTSSEEELVKLVTHFEEMTEHPSGADLIYYPKEGDDDSPSGIVNTVKQWRAANGKSGFKQG
B5: 1EMV SA63A (protein, UniProt P13479 1-86, looked up, variant S63A)
Colicin-E9 immunity protein: MELKHSISDYTEAEFLQLVTTICNADTSSEEELVKLVTHFEEMTEHPSGSDLIYYPKEGDDDAPSGIVNTVKQWRAANGKSGFKQG
B6: 1EMV NA69A (protein, UniProt P13479 1-86, looked up, variant N69A)
Colicin-E9 immunity protein: MELKHSISDYTEAEFLQLVTTICNADTSSEEELVKLVTHFEEMTEHPSGSDLIYYPKEGDDDSPSGIVATVKQWRAANGKSGFKQG
B7: 2WPT SA50A (protein, UniProt P04482 1-86, looked up, variant S50A)
Colicin-E2 immunity protein: MELKHSISDYTEAEFLEFVKKICRAEGATEEDDNKLVREFERLTEHPDGADLIYYPRDDREDSPEGIVKEIKEWRAANGKSGFKQG
B8: 1AHW DC178A (protein, UniProt P13726 33-251, looked up, variant D178A)
extracellular domain: SGTTNTVAAYNLTWKSTNFKTILEWEPKPVNQVYTVQISTKSGDWKSKCFYTTDTECDLTDEIVKDVKQTYLARVFSYPAGNVESTGSAGEPLYENSPEFTPYLETNLGQPTIQSFEQVGTKVNVTVEDERTLVRRNNTFLSLRDVFGKDLIYTLYYWKSSSSGKKTAKTNTNEFLIAVDKGENYCFSVQAVIPSRTVNRKSTDSPVECMGQEKGEFRE
modifications: extracellular domain
B9: 1DAN KT15A (protein, UniProt P13726 33-251, looked up, variant K15A)
extracellular domain: SGTTNTVAAYNLTWASTNFKTILEWEPKPVNQVYTVQISTKSGDWKSKCFYTTDTECDLTDEIVKDVKQTYLARVFSYPAGNVESTGSAGEPLYENSPEFTPYLETNLGQPTIQSFEQVGTKVNVTVEDERTLVRRNNTFLSLRDVFGKDLIYTLYYWKSSSSGKKTAKTNTNEFLIDVDKGENYCFSVQAVIPSRTVNRKSTDSPVECMGQEKGEFRE
modifications: extracellular domain
B10: 1DAN KT20A (protein, UniProt P13726 33-251, looked up, variant K20A)
extracellular domain: SGTTNTVAAYNLTWKSTNFATILEWEPKPVNQVYTVQISTKSGDWKSKCFYTTDTECDLTDEIVKDVKQTYLARVFSYPAGNVESTGSAGEPLYENSPEFTPYLETNLGQPTIQSFEQVGTKVNVTVEDERTLVRRNNTFLSLRDVFGKDLIYTLYYWKSSSSGKKTAKTNTNEFLIDVDKGENYCFSVQAVIPSRTVNRKSTDSPVECMGQEKGEFRE
modifications: extracellular domain
B11: 1DAN ET24A (protein, UniProt P13726 33-251, looked up, variant E24A)
extracellular domain: SGTTNTVAAYNLTWKSTNFKTILAWEPKPVNQVYTVQISTKSGDWKSKCFYTTDTECDLTDEIVKDVKQTYLARVFSYPAGNVESTGSAGEPLYENSPEFTPYLETNLGQPTIQSFEQVGTKVNVTVEDERTLVRRNNTFLSLRDVFGKDLIYTLYYWKSSSSGKKTAKTNTNEFLIDVDKGENYCFSVQAVIPSRTVNRKSTDSPVECMGQEKGEFRE
modifications: extracellular domain
B12: 1DAN ET26A (protein, UniProt P13726 33-251, looked up, variant E26A)
extracellular domain: SGTTNTVAAYNLTWKSTNFKTILEWAPKPVNQVYTVQISTKSGDWKSKCFYTTDTECDLTDEIVKDVKQTYLARVFSYPAGNVESTGSAGEPLYENSPEFTPYLETNLGQPTIQSFEQVGTKVNVTVEDERTLVRRNNTFLSLRDVFGKDLIYTLYYWKSSSSGKKTAKTNTNEFLIDVDKGENYCFSVQAVIPSRTVNRKSTDSPVECMGQEKGEFRE
modifications: extracellular domain
B13: 1DAN KT28A (protein, UniProt P13726 33-251, looked up, variant K28A)
extracellular domain: SGTTNTVAAYNLTWKSTNFKTILEWEPAPVNQVYTVQISTKSGDWKSKCFYTTDTECDLTDEIVKDVKQTYLARVFSYPAGNVESTGSAGEPLYENSPEFTPYLETNLGQPTIQSFEQVGTKVNVTVEDERTLVRRNNTFLSLRDVFGKDLIYTLYYWKSSSSGKKTAKTNTNEFLIDVDKGENYCFSVQAVIPSRTVNRKSTDSPVECMGQEKGEFRE
modifications: extracellular domain
B14: 1DAN KT41A (protein, UniProt P13726 33-251, looked up, variant K41A)
extracellular domain: SGTTNTVAAYNLTWKSTNFKTILEWEPKPVNQVYTVQISTASGDWKSKCFYTTDTECDLTDEIVKDVKQTYLARVFSYPAGNVESTGSAGEPLYENSPEFTPYLETNLGQPTIQSFEQVGTKVNVTVEDERTLVRRNNTFLSLRDVFGKDLIYTLYYWKSSSSGKKTAKTNTNEFLIDVDKGENYCFSVQAVIPSRTVNRKSTDSPVECMGQEKGEFRE
modifications: extracellular domain
B15: 1DAN DT44A (protein, UniProt P13726 33-251, looked up, variant D44A)
extracellular domain: SGTTNTVAAYNLTWKSTNFKTILEWEPKPVNQVYTVQISTKSGAWKSKCFYTTDTECDLTDEIVKDVKQTYLARVFSYPAGNVESTGSAGEPLYENSPEFTPYLETNLGQPTIQSFEQVGTKVNVTVEDERTLVRRNNTFLSLRDVFGKDLIYTLYYWKSSSSGKKTAKTNTNEFLIDVDKGENYCFSVQAVIPSRTVNRKSTDSPVECMGQEKGEFRE
modifications: extracellular domain

Tests used:
[1] = tested on: PPIs of the SKEMPI data set (by PDBID); details: single mutation to alanine, ref SKEMPI, cited from earlier work; for sk_ddG_kJ (SKEMPI experimental ΔΔG): residue group SQNT; for sk_ddG_kJ: SKEMPI experimental ΔΔG of binding, complex by PDBID
[2] = tested on: PPIs of the SKEMPI data set (by PDBID); assay: SKEMPI experimental ΔΔG, single mutations to alanine; assay type: binding; details: class of the SKEMPI experimental ΔΔG

Molecule | sk_ddG_kJ (SKEMPI experimental ΔΔG) ([1]; complex given by PDBID) | sk_class [2] | sk_ddG_kJ (SKEMPI experimental ΔΔG, mutation to alanine) ([1]; complex given by PDBID, chain and residue by mut_pdb) | sk_class ([2]; ref SKEMPI) | sk_ddG_kJ [1]
B1 | 4.02 kJ | Neutral (neutral (little effect) 4.184 kJ/mol < ΔΔG > −4.184 kJ/mol) | – | – | –
B2 | 1.26 kJ | Neutral (neutral (little effect) 4.184 kJ/mol < ΔΔG > −4.184 kJ/mol) | – | – | –
B3 | 0.04 kJ | Neutral (neutral (little effect) 4.184 kJ/mol < ΔΔG > −4.184 kJ/mol) | – | – | –
B4 | 9.16 kJ | Positive (positive (a hot residue) ΔΔG ≥ 4.184 kJ/mol) | – | – | –
B5 | 3.64 kJ | Neutral (neutral (little effect) 4.184 kJ/mol < ΔΔG > −4.184 kJ/mol) | – | – | –
B6 | 1.17 kJ | Neutral (neutral (little effect) 4.184 kJ/mol < ΔΔG > −4.184 kJ/mol) | – | – | –
B7 | – | – | 10.04 kJ | Positive (positive (a hot residue) ΔΔG ≥ 4.184 kJ/mol) | –
B8 | – | – | – | Neutral (neutral (little effect) 4.184 kJ/mol < ΔΔG > −4.184 kJ/mol) | -2.01 kJ
B9 | – | – | – | Neutral (neutral (little effect) 4.184 kJ/mol < ΔΔG > −4.184 kJ/mol) | -1.63 kJ
B10 | – | – | – | Positive (positive (a hot residue) ΔΔG ≥ 4.184 kJ/mol) | 10.21 kJ
B11 | – | – | – | Neutral (neutral (little effect) 4.184 kJ/mol < ΔΔG > −4.184 kJ/mol) | 2.76 kJ
B12 | – | – | – | Neutral (neutral (little effect) 4.184 kJ/mol < ΔΔG > −4.184 kJ/mol) | 0.46 kJ
B13 | – | – | – | Neutral (neutral (little effect) 4.184 kJ/mol < ΔΔG > −4.184 kJ/mol) | 0.50 kJ
B14 | – | – | – | Neutral (neutral (little effect) 4.184 kJ/mol < ΔΔG > −4.184 kJ/mol) | 1.38 kJ
B15 | – | – | – | Positive (positive (a hot residue) ΔΔG ≥ 4.184 kJ/mol) | 10.00 kJ
